The results in this text go back to patent US20190248902A1 (published 2019).

Numbering of substitutions follows the chain as printed.

In test [1] the target is T1, soluble human ASGR-1 carbohydrate binding domain (CBD; amino acid residues 154-281; N-terminal 6xHis tag) (human, UniProt P07306 154-281).
T1 construct: also called ASGR-1 CBD
T1 sequence: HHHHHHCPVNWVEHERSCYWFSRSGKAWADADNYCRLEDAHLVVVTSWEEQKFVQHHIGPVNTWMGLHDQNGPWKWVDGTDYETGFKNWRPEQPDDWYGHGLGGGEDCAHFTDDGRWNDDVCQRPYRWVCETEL
Briefly: Octet BLI, mAb on AR2G tips, 1:1 fit. The source says:
To quantitate the binding affinity of specific antibodies for ASGR-1 (either purified from hybridoma supernatants or made recombinantly), association and dissociation rates can be measured using a ForteBio Octet instrument. […] Experimental kinetic results were globally fit to a 1:1 binding model in order to determine the association and dissociation rate constants as well as the equilibrium dissociation constant. Association and dissociation times were chosen to ensure that curvature was present during association curves and measured dissociation levels dropped at least 5% from starting levels. All Octet buffers contained 10 mM Tris (pH7.5), 150 mM NaCl, 1 mM CaCl₂), 0.10 mg/ml BSA and 0.13% Triton X-100. Octet assays were run at 27° C. Because this assay only measures binding to the ASGR-1 CBD, antibodies that recognize epitopes partially or entirely outside the CBD and/or recognize ASGR-1 in the context of a native ASGR complex, for example, as could occur on cell membranes, may not score as positive in this assay.
(In general: In BLI a coated tip is dipped into the sample, and binding shifts an interference pattern.)

The target in test [2] is T2, human ASGR-1 mutant construct H203 (human, UniProt P07306 1-291).
T2 construct: Arg/Glu scanning: non-arginine residues were changed to arginine; Transiently expressed on CHO-S cells
T2 sequence: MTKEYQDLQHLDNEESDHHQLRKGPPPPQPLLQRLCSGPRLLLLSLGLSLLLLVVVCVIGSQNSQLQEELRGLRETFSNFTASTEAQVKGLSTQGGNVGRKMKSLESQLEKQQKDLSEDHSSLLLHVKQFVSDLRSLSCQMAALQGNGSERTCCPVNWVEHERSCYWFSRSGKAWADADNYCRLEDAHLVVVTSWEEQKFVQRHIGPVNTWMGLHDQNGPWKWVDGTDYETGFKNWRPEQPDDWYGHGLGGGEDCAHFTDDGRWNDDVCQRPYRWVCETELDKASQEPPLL
Briefly: FACS, transfected CHO-S cells, mAb 5 ug/ml. An outline of the steps: (§1)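 Transiently transfected CHO-S cells expressing wild-type or mutant hASGR-1 incubated with antibody at 5 ug/ml, 1 h at 4 °C; bound antibody detected by Alexa Fluor 647 anti-Fc plus 7-AAD, by flow cytometry. Binding normalized to expression using an unaffected antibody (65C12), then to wild type; hits defined as >3× IQR above third quartile.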
On the technique in general: Flow cytometry measures light scatter and fluorescence of single cells or particles in a stream.

In test [3] the target is T3, human ASGR-1 (wild type) (human, UniProt P07306 1-291).
T3 construct: also called wt ASGR1; huASGR-1
T3 sequence: T2 sequence with R203H
Briefly: FACS, transfected CHO-S cells, mAb 5 ug/ml. In outline: as §1

Test [4] addresses T3, human ASGR-1 (wild type). Description: flow cytometry, CHO-S:huASGR-1 cells, 11-point titration. How it is done: CHO—S stable high-expressing cell line were developed for both human ASGR-1 as well as mouse ASGR-1. A typical 384 well plate multiplex flow cytometery-based cell binding method is described as followed: Parental CHO—S cells and CHO—S:huASGR-1 cells were respectively labeled using a CellTrace CFSE Cell Proliferation Kit (ThermoFisher Catalog #C34554) and CellTrace Violet Cell Proliferation Kit (ThermoFisher Catalog#C34557) CHO—S:muASGR-1 were not labeled. 20 ul of cells at 4C were added to duplicate wells of the 384 well plate. The cells were equally mixed from all three cell lines (30K cells/well). Then 20 ul of the ASGR-1 antibodies (either purified from hybridoma supernatants or made recombinantly) were added in an 11-point dose response using a 1:2 fold serial dilution starting at 100 nM. The cells and antibodies were incubated for 30 min at 4C and then spun down and washed twice with FACS buffer containing 1 mM CaCl2. 30 ul of anti-hulgG-APC secondary antibodies were then added at a 1:1000 dilution) for 30 min at 4C and then washed once with the same buffer. 60 ul of PI (1:1000) was added and then the cells were read by a core flow cytometry facility. The cells were gated first for live cells, then for single cells and finally for the cell dyes to separate the mixed cells into the three different cell populations. Histograms of signal vs count representing the binding profile of each antibody at each antibody concentration were automatically analyzed for the median of the binding signal and then a binding graph was made with log 10 antibody concentration in nM on the X axis with […] from the duplicate wells on the Y-axis. The binding curves were fit with a standard four parameter sigmoidal binding curve and EC50's reported for all graphs with full curves.

B1: 184E7 (antibody, V domains shown)
VH: QVQLVQSGAEVKTPGASVKVSCRASGYTFTSYNMHWVRQVPGQGLEWMGWINPNNGGSNYTQKFQGRVTMTRDTSISTAYMELSRLRSDDTAVYYCARKFGDWGQGTLVTVSS
VL: DIQMTQSPSSRSASIGERVTITCRASQGISNYLAWIQQKPGTAPKSLIYAASSLQSGVSSRFSGSGFGTDFTITISSVQREDFATYYCQQYNGYPFTFGHGTKVDIK
notes: mAb
Broadly, the Kd is the constant that tells how readily two partners part at equilibrium. A low value points to tighter binding. Usually EC50 stands for the concentration at which the effect is half-maximal. Low readings indicate an effect from little substance, high ones a need for much substance. For B1, the affinity in test [1], expressed as Kd, was 0.3 nM. Besides, the “FACS Binding Geomean” value in test [2] was found to be 18400; in the test with human ASGR-1 (wild type) [3], 42700. The same molecule displayed an EC50 with human ASGR-1 (wild type) [4] of 1 nM.

B2: 72G9 (antibody, V domains shown)
VH: EVQLVESGGGLVKPGGSLRLSCAASGFTFSSYSMNWVRQAPGKGLEWVSSISGSSSYIYYADSVKGRFTISRDNAKNSLYLQMNSLRAEDTAVYFCARGGSRGFDPWGQGTLVTVSS
VL: DIQMTQSPSSLSASVGDRVTITCRASQSITSYLNWYQQKPGKAPKLLIYTASSLQSGVPSRFSGSGSGTDFTLTISSLQPEDFATYYCQQSHSFPFTFGPGTKVDIK
notes: mAb
For B2, binding in test [1] was characterised by a dissociation constant (Kd) of 0.5 nM. Besides, the “FACS Binding Geomean” value in test [2] came to 18800; with human ASGR-1 (wild type) [3], 36500. Besides, in the test with human ASGR-1 (wild type) [4], the EC50 was 0.41 nM.

B3: 6G7 (antibody, V domains shown)
VH: QVQLVESGGGVVQPGRSLRLSCAASGFTFSSYGMHWVRQTPGKGLEWVAIISYVGKNKYYADSVKGRFTISRDNSKNTLYLQMNSLRAEDTAVYYCARRGNSYGGYGMDVWGQGTTVTVSS
VL: DIQMTQSPSSRSASVGDRVTITCQASQDISNYLNWCQQKPGKALKLLIYDASTLETGVPSRFSGSGSGTDFTFTISSVQPEDIATYYCQQYDNVPITFGQGTRLEIK
notes: mAb
For B3, in test [1], the affinity, expressed as Kd, was 2 nM. Also, the figures for the “FACS Binding Geomean” value (in test [2]; with human ASGR-1 (wild type) [3]) were 15100 and 38600, respectively. In addition, the midpoint of the response with human ASGR-1 (wild type) [4], the EC50, lay at 0.6 nM.

B4: 194A4 (antibody, V domains shown)
VH: QVQLVQSGTEVKKPGASLKVSCKASGYTFTVYYLNWVRQAPGQGLEWMGWINPNSGGTNYAQKFQGRVTMTRDTSISTAYMELSRLRSDDTAVYYCARGYDILTGWGQGTLVTVSS
VL: EIVLTQSPGTLSLSPGERATLSCRASRGVSNIYLAWYQQKPGQAPRLLIYGASNRATGIPDRFSGSGSGTDFTLTISRLEPEDFAVYYCQHNDYSMFTFGPGTKVDIK
notes: mAb
In test [1], B4 came in with an equilibrium dissociation constant (Kd) of 0.7 nM. Besides, the results for the “FACS Binding Geomean” value (in test [2]; with human ASGR-1 (wild type) [3]) were 12100 and 16300, respectively. Further, the response with human ASGR-1 (wild type) [4] was half-maximal at 25 nM (EC50).

B5: 48B12 (antibody, V domains shown)
VH: EVQLLESGGGLVQPGGSLRLSCAASGFTFSSYAMNWVRQAPGKGLEWVSAISGRGGNTFYADSVKGRFTISRDNSKNTLYLQMNSLRAEDTAVYYCAKRETYNWNYEGFDYWGQGTLVTVSS
VL: SYELTQPPSVSVSPGQTARITCSGDALPKKYAYWYQQKSGQAPVLVIYEDSKRPSGIPERFSGSSSGTMATLTISGAQVEDEADYYCNSTDSSGNHVVFGGGTKLTVL
notes: mAb
Molecule B5 returned a Kd in test [1] of 0.3 nM. In addition, the entries for the “FACS Binding Geomean” value (in test [2]; with human ASGR-1 (wild type) [3]) were 20500 and 52500, respectively. The EC50 with human ASGR-1 (wild type) [4] was 38 nM.

B6: 25A4 (antibody, V domains shown)
VH: QVLLVQSGAEVKRPGASVKVSCKASGYTFTNYDINWVRQATGQGLEWMGWMYPNSGNTGYAQKFQGRVTMTRNTSISTAYMELSSLRSEDTAVYYCASSSGWYYFDYWGQGTLVTVSS
VL: DIVMTQFPDSLAVSLGERATIKCKSSQSVLYSSHNNNYLAWYQQKPGQPPKLLLYWASTRESGVPDRFSGSGSGTEFTLTISSLEAEDVAVYYCQQYYSTPPTFGQGTKVEIK
notes: mAb
Consider B6, for which binding in test [1] was characterised by a dissociation constant (Kd) of 0.03 nM. The “FACS Binding Geomean” value stood at 20000 in test [2] and 55600 in the test with human ASGR-1 (wild type) [3]. Moreover, a half-maximal response in the test with human ASGR-1 (wild type) [4] (EC50) required 1.6 nM.

B7: 22G5 (antibody, V domains shown)
VH: EVQLLESGGGLVQPGGSLRLSCAASGFTFSSYAMNWVRQAPGMGLEWVSVISRSGGYTYYADSVKGRFTISRDNSKNTLYLQMNSLRAEDTAVYYCASRLAVAGSEAFDIWGQGTLVTVSS
VL: DIQMTQSPSSLSASVGDRVTITCRASQNISSYLNWYQQKQGKAPKLLIYAASSLQNGVPSRFSGRGSGTDFTLTISSLQPEDFATYYCQQSYRTPLFTFGPGTKVDFK
notes: mAb
Consider B7, for which, in test [1], the Kd is 1.4 nM. The “FACS Binding Geomean” value was determined as 15100 in test [2] and 45000 in the test with human ASGR-1 (wild type) [3]. Moreover, in the test with human ASGR-1 (wild type) [4], the midpoint of the response, the EC50, lay at 7.2 nM.

B8: 190F8 (antibody, V domains shown)
VH: QVQLVESGGGVVQPGRSLRLSCAASGFTFSTYGMHWVRQAPGKGLEWVAVIWYDGSNKNYADSVKGRFTISRDNSKNTLYLQMNSLRAEDTAVYYCARDQGVGYDGLDVWGQGTTVTVSS
VL: DIQMTQSPSSLSASVGDRVTITCRTSQGIGNYLAWFQQKPGKAPKSLLYKASSLQSGVPSKFSGSGSGTDFTLTISSLQPEDFATYYCQQYMTYPLTFGGGTKVEIK
notes: mAb
In turn, B8 yielded a Kd in test [1] of 0.6 nM. Further, the “FACS Binding Geomean” value is 15100 in test [2] and 36500 with human ASGR-1 (wild type) [3]. The molecule also came in with a 50% effective concentration (EC50) in the test with human ASGR-1 (wild type) [4] of 9 nM.

B9: 194C1 (antibody, V domains shown)
VH: B8 VH with T31S, K58E, N59H, D99N, Q100R, D105Y
VL: B8 VL with T25A, G30S, L48I, K50A, Q89L, Q90H, M92L
notes: mAb
In test [1], B9 had a Kd of 1.3 nM. The “FACS Binding Geomean” value in test [2] is 11000; in the test with human ASGR-1 (wild type) [3], 20900. The molecule further had an EC50 with human ASGR-1 (wild type) [4] of 0.11 nM.

B10: 191G10 (antibody, V domains shown)
VH: B8 VH with T31S
VL: B8 VL with N31K, A51V
notes: mAb
For the molecule B10, the Kd in test [1] was 0.5 nM. The figures for the “FACS Binding Geomean” value (in test [2]; with human ASGR-1 (wild type) [3]) were 17000 and 33800, respectively. Besides, a half-maximal effect with human ASGR-1 (wild type) [4] (EC50) was put at 0.31 nM.

B11: 198G3 (antibody, V domains shown)
VH: B8 VH with R19K, S56T, Y80C
VL: B8 VL with T5A, N31K, S56G
notes: mAb
As for B11, the affinity in test [1], expressed as Kd, was 0.04 nM. Also, the results for the “FACS Binding Geomean” value (in test [2]; with human ASGR-1 (wild type) [3]) were 13100 and 21500, respectively. This molecule showed an EC50 with human ASGR-1 (wild type) [4] of 0.21 nM.

B12: 191G1 (antibody, V domains shown)
VH: B8 VH with T31S, K58E, N59H, Q100R, D105Y
VL: B8 VL with T25A, G30S, L48I, K50A, Q90H, M92L
notes: mAb
In the case of B12, in test [1], the affinity, expressed as Kd, was 2.4 nM. The “FACS Binding Geomean” value was found to be 10900 in test [2] and 25300 with human ASGR-1 (wild type) [3]. This molecule registered an EC50 with human ASGR-1 (wild type) [4] of 0.16 nM.
